Measurements reported in paper PMC10720262 (Cell Reports, 2023).
Positions count from the first letter of the chain named.

B1: mAb Ky15.3 (human IgG1) (antibody, V domains shown)
VH: QVQLVESGGGVVQPGRSLRLSCVASGFTFSNAGMHWVRQTPGKGLEWVAIIWYDGSIKYYGESVKGRFTISRDNSKNTLYLEMSSLRAEDTAVYFCVRAYSGSLYDKYGMDVWGQGTTVIVSS
VL: DIQMTQSPSTLSASVGDRVTISCRASQTISTWLAWFQQKPGKAPKLLIYAASSLQSGVPSRFSGSGSGTDFTLTISNLQPDDFATYYCQQFNSYWTFGQGTKVEIK
B2: mAb Ky224 (human IgG1) (antibody, V domains shown)
VH: QVQLVESGGGVVQPGRSLRLSCAASGFTFSVYGMHWVRQAPGKGLEWVAVIWYDGSNKIYADSVKGRFTISRDNSKNTLYLQMDSLSAADTAVYYCAKIGSSSFDYWGQGTLVIVSS
VL: DIVMTQTPLSSPVTLGQPASISCRSSQSLVHSNGITYLSWLQQRPGQPPRLLLYEISNRFSGVPDRFSGSGTGTDFTLKISRVEAEDVGVYYCMQTTQFPITFGQGTRLEIK
B3: mAb Ky311 (human IgG1) (antibody, V domains shown)
VH: QMHLVESGGGVVQPGRSLRLSCVASGFTFNNHGMHWVRQAPGKGLEWVAVIWHDGSNKFYADSVNGRFIVSRDNSKNTLYLHMNSLRAEDTAVYYCARDFFVSGSYNYFDPWGQGTLVTVSS
VL: EIVLTQSPVTLSLSPGERATLSCRASQSVSNYLAWYQQKPGQAPRLLIYDAANRATGTPARFSGSGSGTDFTLTISSLEPEDFAVYFCQQRSKWFTFGPGTKLDIK
B4: mAb Ky15.2 (human IgG1) (antibody, V domains shown)
VH: QVLLVESGGGVVQPGTSLRLSCVASGFSFSTYGMHWVRQSPGKGLEWVAIIWYDGGNKFYADSVQGRFTVSRDNSKNTLYLQMNSLRAEDTAVYYCAKAYRTSLDKKYGMDVWGQGTTVTVSS
VL: DIQMTQSPSTLSASVGDRVTITCRASQSIASWLAWYQQKPGKAPKLLIYKASSLESGVPSRFSGSGSGTEFTLTISSLHPDDFATYFCQQFTSYWTFGQGTKVEIK
B5: mAb Ky15.11 (human IgG1) (antibody, V domains shown)
VH: QVQLVESGGGVVQPGRSLRLSCEASGFTFSNFGMHWVRQTPVKGLEWVAIIWFDGSYKYYTDSVKGRFTISRDNSKNTLYLQMNSLRAEDTAVYYCARARKGQRSDYYGSETSYTFDNWGQGTLVTVSS
VL: B4 VL with A30N, S31G, L46F, S53I, V58I, H79Q, F87Y, F91Y, T92S
B6: mAb Ky15.7 (human IgG1) (antibody, V domains shown)
VH: QVQVVESGGGAVQPGRSLRLSCAASGFTFSNRGMHWVRQTPGKGLEWVAIIWYDGGNKFYADSVKGRFTISRDNSKNTLYLQMNSLRDEDTAVYYCVRAGDWKADKYTMDVWGQGTTVTVSS
VL: B4 VL with A30S, L46V, K50Q, H79Q, F87Y, F91Y, T92N
B7: mAb Ky315 (human IgG1) (antibody, V domains shown)
VH: QVQLVESGGGVVQPGRSLRLSCAASGFTLSNYGVHWVRQAPGTGLEWVALIWYDGSNKFYADSVKGRFTISRDNSMDIVYLQMNNLRAEDTALYYCVRPGIAAAGSNYYAMDVWGQGTAVTVSS
VL: EIVMTQSPATLSMSPGERATLSCRASQSVGSDLAWFQQKPGQAPRLLIYGAFTRATGIPARFSGSGSGSEFTLTISSLQSEDFAVYYCQQYNRWWTFGQGTKVEMK
B8: mAb Ky230 (human IgG1) (antibody, V domains shown)
VH: QVQLVESGGGVVQPGRSLRLSCAASGFTFSDYGMHWVRQAPGKGLEWVAIIWHDGSNKYYVDSVKGRFTISRDNSKNTLYLQMNSLRAEDTAVYYCARAASSFGSGFDYWGQGTLVTVSS
VL: DVVMTQSPLSLPVTLGQPASIFCRSSQSLVYSDGNTYLNWFQRRPGQSPRRLIYKVSDRDSGVPDRFSGSGSGTDFTLQISRVEAEDVGVYYCMQGTHWPPTFGQGTKVEIK
B9: mAb Ky15.1 (human IgG1) (antibody, V domains shown)
VH: QVQLVESGGGVVQPGRSLRLSCAASGFTFSNFGMHWVRQTPDRGLEWVAIIWFDGSNTFYADSVKGRFTISRDNYKNTLYLQMNSLRAEDTAVYFCARSFYSDSAGSLFDYWGQGTLVTVSS
VL: DIQMTQSPSTLSASVGDRVTITCRASQSISSWVAWYQQKPGKAPKLLIYKASDLETGVPSRFSGSGSGTEFTLTISGLQPDDFVTYYCLQNMRYWTFGQGTKVEIK
B10: mAb Ky15.5 (human IgG1) (antibody, V domains shown)
VH: QVQMVASGGGVVQPGRSLRLSCAVSGFTFRNFGMHWVRQDPGRGLEWVAIIWYDGSYEFYADSVKGRFTISRDNSKNTLYLQMNSLRAEDTAVYYCARSYGSLTGDETKYGMDVWGQGTTVTVSS
VL: B4 VL with A30S, Y36F, H79Q, F87Y, F91Y, T92K, S93N
B11: mAb Ky15.8 (human IgG1) (antibody, V domains shown)
VH: QVQLVESGGNVVQPGRSLRLSCTASGFTFSSYGMHWVRQAPDKGLEWVAIIWYDGGNKFYADSVKGRFTISRDNSKDTLYLQMNSLRAEDTAVYYCAKAWYKIDDKYSMDVWGQGTTVTVSS
VL: not shown
B12: mAb Ky15.10 (human IgG1) (antibody, V domains shown)
VH: QVQLVESGGGVVQPGRSLRLSCAASGFTFSNSGMHWVRQVPGKGLEWVAIIWYDGSNKYYADSVKGRFSVSRDNSENTLYLQMSNLRAEDTAVYYCVRAYFDSENLYDYYGMDVWGQGTTVTVSS
VL: DIQMTQSPSTLSASVGDRVTITCRASQSISRWLAWFQKKPGKAPKLLIYTASNLESGVPSRFSGSGSGTEFTLTISSLQPDDFATYYCQQYYNYWTFGQGTKVEVK
B13: mAb 317 (antibody, V domains shown)
VH: QMQLVESGGGVVQPGRSLRLSCTASGFTFSTYAMHWVRQSPGQGLQWVAVISYHSTNKYYEDSVRGRFTISRDNSKNTLYLQMNSLRAEDTAVYYCARDGYSSSFFDFWGQGTLVTVSS
VL: DIQMTQSPSTLSASVGDRVAITCRASQSISRWLAWYQQQPGKAPKLLMSGASVLESGVPSRFSGSGSGTEFTLTISSLQPDDFATYYCQHYNSYFVTFGQGTKVEIK
notes: also called 31715 (label with citation mark 15)
B14: mAb 2541 (antibody, V domains shown)
VH: QVQLVESGGGVVQPGRSLRLSCAASGFTFSSYGMHWVRQTTGKGLEWVAIIWHDGSKKYYADSVKGRLTISRDNSKNTLYLQMNSLRVEDTALYYCARVGDYSDFKYGAFDIWGQGTMVTVSS
VL: B4 VL with A30S, K45N, S53T, H79Q, F87Y, F91Y, T92N, K102R
notes: also called 254121 (label with citation mark 21)
B15: mAb CIS43 (antibody, V domains shown)
VH: QVQLVQSGAEVKKPGASVKVSCKASGYTFTSYAIHWVRQAPGQRLEWMGWIKAGNGNTRYSQKFQDRVTITRDTSTTTAYMELSSLRSEDTAVYYCALLTVLTPDDAFDIWGQGTMVTVSS
VL: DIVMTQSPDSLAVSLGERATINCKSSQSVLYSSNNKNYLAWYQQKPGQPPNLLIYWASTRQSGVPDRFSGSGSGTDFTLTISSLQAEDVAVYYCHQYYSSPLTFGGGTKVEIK
notes: also called CIS4317 (label with citation mark 17)
B16: Ky15.3 (antibody, V domains shown)
VH: B1 VH
VL: B1 VL
notes: source: CHO-3E7, purified (MabSelect SuRe LX)
B17: Ky15.2 (antibody, V domains shown)
VH: B4 VH
VL: B4 VL
notes: as for B16
B18: Ky15.5 (antibody, V domains shown)
VH: B10 VH
VL: B12 VL with R31S, K38Q, T50K, N53S, Y92K, V105I
notes: as for B16

target: recombinant full-length PfCSP (Plasmodium falciparum circumsporozoite protein, strain NF54) (Plasmodium falciparum NF54, UniProt P19597); assay: cell-based or functional assay; conditions: not given
Sequence (P19597 20-375): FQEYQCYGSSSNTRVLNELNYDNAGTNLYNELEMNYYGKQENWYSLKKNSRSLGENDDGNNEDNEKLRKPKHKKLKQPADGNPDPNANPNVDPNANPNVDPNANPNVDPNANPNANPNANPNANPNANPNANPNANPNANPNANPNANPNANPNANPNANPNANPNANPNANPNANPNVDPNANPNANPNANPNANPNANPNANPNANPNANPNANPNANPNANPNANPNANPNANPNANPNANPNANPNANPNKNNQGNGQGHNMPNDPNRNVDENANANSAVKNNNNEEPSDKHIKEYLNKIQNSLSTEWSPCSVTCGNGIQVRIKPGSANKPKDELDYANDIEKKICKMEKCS

Binder | other [µg/mL]
B1 | < 1.5
B2 | < 1.5
B3 | < 1.5
B4 | < 1.5
B5 | < 1.5
B6 | < 1.5
B7 | < 1.5
B8 | < 1.5
B9 | < 1.5
B10 | < 1.5
B11 | < 1.5
B12 | < 1.5

target: T1, recombinant full-length PfCSP (strain NF54) (Plasmodium falciparum NF54, UniProt P19597); assay: BLI; Octet RED96; His-tagged PfCSP on Ni-NTA biosensors, 2-fold dilutions of mAb; PBS pH 7.4, 0.01% BSA, 0.002% Tween 20; 1:1 binding model; conditions: both partners purified
T1 construct: also called NF54 PfCSP; Pf circumsporozoite protein; not shown: His tag, C-terminal, kept
T1 sequence (P19597 20-375): as above

Binder | kon [M⁻¹ s⁻¹]
B13 | 27200
B14 | 71000
B15 | 444000

target: T2, NANP6 peptide (Plasmodium falciparum NF54); assay: SPR; Carterra LSA; mAb amine-coupled to a CMD200M chip, peptide titrated in 2-fold steps up to 8 ug/mL without regeneration; 25 C; HBSTE (10 mM HEPES pH 7.4, 150 mM NaCl, 3 mM EDTA, 0.01% Tween 20); 1:1 Langmuir model; mean of triplicates; KD includes avidity for antigens with several repeats; conditions: both partners purified
T2 construct: source: synthetic peptide (CPC Scientific)

Binder | Kd [pM] | koff [s⁻¹] | kon [M⁻¹ s⁻¹]
B16 | ≤ 17.4 |  | 
B13 | 404 | 0.000118 | 292000
B14 | ≤ 133 | ≤ 1e-05 | 86600
B17 | 71.3 |  | 
B18 | ≤ 36.9 |  | 
B15 | 54900 | 0.00974 | 179000
